Reference: patent US20230257470A1 (published 2023)

T1: human FcγRIIa(H) (allotype H131) (human, UniProt P12318 36-217)
T1 construct: Soluble analyte in SPR; also called hFcgRIIa(H); FcgRIIaH
T1 sequence: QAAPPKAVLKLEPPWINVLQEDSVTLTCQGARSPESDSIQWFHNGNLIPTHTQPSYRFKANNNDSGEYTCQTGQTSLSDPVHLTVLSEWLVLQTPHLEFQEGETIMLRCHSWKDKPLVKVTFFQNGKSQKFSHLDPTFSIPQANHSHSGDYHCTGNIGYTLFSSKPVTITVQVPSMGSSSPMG

T2: human FcγRIIb (human, UniProt P31994 43-217, limits assumed)
T2 construct: Soluble analyte in SPR; also called hFcgRIIb; FcgRIIb
T2 sequence: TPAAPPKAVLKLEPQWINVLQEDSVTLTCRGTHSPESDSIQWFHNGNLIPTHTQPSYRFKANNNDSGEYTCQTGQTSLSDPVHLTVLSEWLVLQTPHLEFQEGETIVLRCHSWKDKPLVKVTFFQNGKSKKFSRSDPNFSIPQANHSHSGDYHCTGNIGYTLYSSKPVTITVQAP

T3: human FcγRIIa(R) (allotype R131) (human, UniProt P12318 36-217)
T3 construct: Soluble analyte in SPR; also called hFcgRIIa(R); FcgRIIaR
T3 chain: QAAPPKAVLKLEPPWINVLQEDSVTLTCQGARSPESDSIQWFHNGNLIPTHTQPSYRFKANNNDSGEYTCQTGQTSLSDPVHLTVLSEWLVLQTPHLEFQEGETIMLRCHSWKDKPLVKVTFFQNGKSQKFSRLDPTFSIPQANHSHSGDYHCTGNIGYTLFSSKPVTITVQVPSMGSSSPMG

T4: human FcγRIIb (human, UniProt P31994 43-217, limits assumed)
T4 construct: Whole entry (AAI46679.1); also called FcγIIB; FcgRIIb
T4 sequence: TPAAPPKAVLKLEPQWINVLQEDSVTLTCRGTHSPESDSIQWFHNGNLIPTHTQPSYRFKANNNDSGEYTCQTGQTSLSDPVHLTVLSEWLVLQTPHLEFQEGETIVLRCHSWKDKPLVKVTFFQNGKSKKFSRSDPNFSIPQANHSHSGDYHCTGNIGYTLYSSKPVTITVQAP

T5: human FcγRIIa type R (human, UniProt P12318 36-217)
T5 construct: also called FcγRIIaR; FcγRIIa(R)
T5 chain: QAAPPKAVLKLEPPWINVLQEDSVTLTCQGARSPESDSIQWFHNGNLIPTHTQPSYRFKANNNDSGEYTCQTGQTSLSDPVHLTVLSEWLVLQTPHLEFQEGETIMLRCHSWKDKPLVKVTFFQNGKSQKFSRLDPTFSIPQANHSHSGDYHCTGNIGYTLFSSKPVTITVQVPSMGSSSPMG

T6: mouse FcγRIIb (mouse, UniProt P08101 40-217, limits assumed)
T6 construct: Bought protein; construct not described; also called mFcgRIIb
T6 sequence (looked up): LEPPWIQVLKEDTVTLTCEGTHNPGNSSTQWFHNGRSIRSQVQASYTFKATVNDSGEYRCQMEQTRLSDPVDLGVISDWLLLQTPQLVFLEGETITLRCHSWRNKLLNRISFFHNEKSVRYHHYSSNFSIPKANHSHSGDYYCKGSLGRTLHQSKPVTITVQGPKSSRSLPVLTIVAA

T7: mouse FcγRI (mouse, UniProt P26151 25-297)
T7 construct: Bought protein; construct not described; also called mFcgRI
T7 sequence (looked up): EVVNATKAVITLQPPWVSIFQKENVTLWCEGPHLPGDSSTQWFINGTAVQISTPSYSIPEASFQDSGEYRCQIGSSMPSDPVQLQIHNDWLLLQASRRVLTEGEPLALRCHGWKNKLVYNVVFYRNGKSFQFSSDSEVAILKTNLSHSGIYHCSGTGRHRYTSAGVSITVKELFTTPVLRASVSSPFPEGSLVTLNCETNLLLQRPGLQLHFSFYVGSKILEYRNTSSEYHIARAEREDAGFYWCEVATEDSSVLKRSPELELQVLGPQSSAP

T8: mouse FcγRIII (mouse, UniProt P08508 31-215)
T8 construct: Bought protein; construct not described; also called mFcgRIII
T8 sequence (looked up): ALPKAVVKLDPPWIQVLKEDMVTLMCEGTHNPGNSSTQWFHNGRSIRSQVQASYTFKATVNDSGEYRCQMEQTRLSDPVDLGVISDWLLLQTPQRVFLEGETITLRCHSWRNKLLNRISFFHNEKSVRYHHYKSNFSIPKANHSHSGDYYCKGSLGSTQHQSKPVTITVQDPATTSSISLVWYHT


Assays:
human FcγRIa = target: T9, human FcγRIa (human, UniProt P12314 16-292, limits assumed); assay: SPR (Biacore T100), ratio of the KD values of Table 24
T9 construct: Soluble analyte in SPR; also called hFcgRIa; FcgRIa
T9 sequence (P12314 16-292 limits assumed): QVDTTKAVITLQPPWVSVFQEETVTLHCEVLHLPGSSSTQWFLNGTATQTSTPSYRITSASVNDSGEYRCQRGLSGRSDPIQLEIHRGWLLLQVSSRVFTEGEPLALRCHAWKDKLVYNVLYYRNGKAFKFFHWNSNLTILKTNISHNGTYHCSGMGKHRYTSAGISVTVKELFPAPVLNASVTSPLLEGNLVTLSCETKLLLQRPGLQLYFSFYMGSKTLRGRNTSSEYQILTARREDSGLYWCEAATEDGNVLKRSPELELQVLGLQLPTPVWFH

[1] = target: T1, human FcγRIIa(H) (allotype H131); assay: as above
human FcγRIIb [2] = target: T2, human FcγRIIb; assay: as above
[3] = target: T3, human FcγRIIa(R) (allotype R131); assay: as above
human FcγRIIb [4] = target: T4, human FcγRIIb; assay: SPR (Biacore), antibody captured on Protein A chip, FcγR as analyte, 25 C, method of Example 14
human FcγRIIa type R = target: T5, human FcγRIIa type R; assay: as above
mouse FcγRIIb = target: T6, mouse FcγRIIb; assay: SPR, antibody captured by Protein L, mouse FcγR injected, pH 7.4
mouse FcγRI = target: T7, mouse FcγRI; assay: as above
mouse FcγRIII = target: T8, mouse FcγRIII; assay: as above

Binder	Kd (human FcγRIIb [4]) [µM]	binding result (mouse FcγRIIb)	binding result (mouse FcγRI)	binding result (mouse FcγRIII)	also measured
IgG1-v2 (antibody containing IL6R-G1d_v2 as H chain and IL6R-L as L chain) (antibody, IL6R-G1d with L328E (EU numbering); also called L328E) heavy: not shown light: DIQMTQSPSSLSASVGDRVTITCRASQDISSYLNWYQQKPGKAPKLLIYYTSRLHSGVPSRFSGSGSGTDFTFTISSLQPEDIATYYCQQGNTLPYTFGQGTKVEIK	–	–	–	–	relative KD (KD of IgG1 / KD of the variant) (human FcγRIa): 0.74 fold; relative KD (KD of IgG1 / KD of the variant) [1]: 0.064 fold; relative KD (KD of IgG1 / KD of the variant) (human FcγRIIb [2]): 2.3 fold; relative KD (KD of IgG1 / KD of the variant) [3]: 0.41 fold
IL6R-BF648/IL6R-L (antibody, human IgG1, name in EU numbering, Alteration introduced into IL6R-B3; positions in EU numbering) heavy: not shown light: DIQMTQSPSSLSASVGDRVTITCRASQDISSYLNWYQQKPGKAPKLLIYYTSRLHSGVPSRFSGSGSGTDFTFTISSLQPEDIATYYCQQGNTLPYTFGQGTKVEIK	12	–	–	–	–
IL6R-BP146/IL6R-L (antibody, human IgG1, name in EU numbering, Alterations introduced into IL6R-B3 (EU numbering)) heavy: QVQLQESGPGLVKPSETLSLTCAVSGHSISHDHAWSWVRQPPGEGLEWIGFISYSGITNYNPSLQGRVTISRDNSKNTLYLQMNSLRAEDTAVYYCARSLARTTAMDYWGEGTLVTVSSASTKGPSVFPLAPSSKSTSGGTAALGCLVKDYFPEPVTVSWNSGALTSGVHTFPAVLQSSGLYSLSSVVTVPSSSLGTQTYICNVNHKPSNTKVDKKVEPKSCDKTHTCPPCPAPEYLGDDSVFLFPPKPKDTLMISRTPEVTCVVVDVSHEDPEVKFNWYVDGVEVHNAKTKPREEQYNSTYRVVSVLTVLHQDWLNGKEYKCKVSNAALPAPIEKTISKAKGQPREPQVYTLPPSRDELTKNQVSLTCLVKGFYPSDIAVEWESNGQPENNYKTTPPVLDSDGSFFLYSKLTVDKSRWQQGNVFSCSVMHEALHNHYTQESLSLSP light: DIQMTQSPSSLSASVGDRVTITCRASQDISSYLNWYQQKPGKAPKLLIYYTSRLHSGVPSRFSGSGSGTDFTFTISSLQPEDIATYYCQQGNTLPYTFGQGTKVEIK	–	–	–	–	Kd (human FcγRIIa type R): 21 µM
VH3/L(WT)-IgG1-F821 (antibody, L235R/S239K variant of VH3-IgG1-F11 with L(WT)-CK; also called VH3-IgG1-F821; copies: 2 + 2) heavy: QVQLQESGPGLVKPSETLSLTCAVSGHSISHDHAWSWVRQPPGEGLEWIGFISYSGITNYNPSLQGRVTISRDNSKNTLYLQMNSLRAEDTAVYYCARSLARTTAMDYWGEGTLVTVSSASTKGPSVFPLAPSSKSTSGGTAALGCLVKDYFPEPVTVSWNSGALTSGVHTFPAVLQSSGLYSLSSVVTVPSSSLGTQTYICNVNHKPSNTKVDKKVEPKSCDKTHTCPPCPAPELRGGPKVFLFPPKPKDTLYISRTPEVTCVVVDVSHEDPEVKFNWYVDGVEVHNAKTKPREEQYNSTYRVVSVLTVLHQDWLNGKEYKCKVSNKALPAPIEKTISKAKGQPREPQVYTLPPSRDELTKNQVSLTCLVKGFYPSDIAVEWESNGQPENNYKTTPPVLDSDGSFFLYSKLTVDKSRWQQGNVFSCSVMHEALHYHYTQKSLSLSP light: not shown	–	no binding	no binding	no binding	–

Now from value to binder, other results behind:

Kd (human FcγRIIb [4]) [µM]	binding result (mouse FcγRIIb)	binding result (mouse FcγRI)	binding result (mouse FcγRIII)	Binder	also measured
10	–	–	–	IL6R-2B261/IL6R-L (antibody, human IgG1, name in EU numbering, Alterations introduced into IL6R-B3 (EU numbering)) heavy: QVQLQESGPGLVKPSETLSLTCAVSGHSISHDHAWSWVRQPPGEGLEWIGFISYSGITNYNPSLQGRVTISRDNSKNTLYLQMNSLRAEDTAVYYCARSLARTTAMDYWGEGTLVTVSSASTKGPSVFPLAPSSKSTSGGTAALGCLVKDYFPEPVTVSWNSGALTSGVHTFPAVLQSSGLYSLSSVVTVPSSSLGTQTYICNVNHKPSNTKVDKKVEPKSCDKTHTCPPCPAPDLLGGDSVFLFPPKPKDTLMISRTPEVTCVVVDVSHEDPEVKFNWYVDGVEVHNAKTKPREEQDNSTYRVVSVLTVLHQDWLNGKEYKCKVSNKALPAPIEKTISKAKGQPREPQVYTLPPSRDELTKNQVSLTCLVKGFYPSDIAVEWESNGQPENNYKTTPPVLDSDGSFFLYSKLTVDKSRWQQGNVFSCSVMHEALHNHYTQESLSLSP light: DIQMTQSPSSLSASVGDRVTITCRASQDISSYLNWYQQKPGKAPKLLIYYTSRLHSGVPSRFSGSGSGTDFTFTISSLQPEDIATYYCQQGNTLPYTFGQGTKVEIK	–
–	no binding	no binding	no binding	VH3/L(WT)-IgG1-F939 (antibody, L235R/S239K variant of VH3-IgG1-F890 with L(WT)-CK; also called VH3-IgG1-F939; copies: 2 + 2) heavy: QVQLQESGPGLVKPSETLSLTCAVSGHSISHDHAWSWVRQPPGEGLEWIGFISYSGITNYNPSLQGRVTISRDNSKNTLYLQMNSLRAEDTAVYYCARSLARTTAMDYWGEGTLVTVSSASTKGPSVFPLAPSSKSTSGGTAALGCLVKDYFPEPVTVSWNSGALTSGVHTFPAVLQSSGLYSLSSVVTVPSSSLGTQTYICNVNHKPSNTKVDKKVEPKSCDKTHTCPPCPAPELRGGPKVFLFPPKPKDTLYISRTPEVTCVVVDVSHEDPEVKFNWYVDGVEVHNAKTKPREEQYNSTYRVVSVLTVLHQDWLNGKEYKCKVSNKALPAPIEKTISKAKGQPREPQVYTLPPSRDELTKNQVSLTCLVKGFYPSDIAVEWESNGQPENNYKTTPPVLDSDGSFFLYSKLTVDKSRWQQGNVFSCSVMHEALHYHVTQKSLSLSP light: not shown	–
